According to patent US20200197547A1 (INSERM INSTITUT NATIONAL DE LA SANT ET DE LA RECHERCHE M …, published 2020):

Assays:
[1] = target: T1, Mesothelin (MSLN) on MSLN-positive HCC70 human triple negative breast cancer cells (human, UniProt Q13421 296-598); experiment: cell-based or functional assay
[2] = target: T2, Human MSLN recombinant protein (R&D systems) (human, UniProt Q13421 296-580, limits assumed); experiment: saturation radioligand binding on plate-immobilized recombinant human MSLN
T2 construct: Bought protein, 100 ng immobilized on immunosorbent plates; also called recombinant MSLN; recombinant human mesothelin
T2 sequence (Q13421 other isoform, or with tags, fused parts or gaps limits assumed): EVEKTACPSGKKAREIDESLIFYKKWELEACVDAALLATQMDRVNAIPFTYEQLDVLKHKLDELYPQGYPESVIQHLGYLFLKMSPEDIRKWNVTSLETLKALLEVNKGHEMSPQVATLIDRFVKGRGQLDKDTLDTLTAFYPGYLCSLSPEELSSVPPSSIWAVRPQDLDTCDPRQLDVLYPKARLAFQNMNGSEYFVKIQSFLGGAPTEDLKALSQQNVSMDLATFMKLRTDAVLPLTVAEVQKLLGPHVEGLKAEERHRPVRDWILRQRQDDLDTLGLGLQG
Protocol: (§1) Human MSLN recombinant protein (100 ng, R&D systems) was immobilized on immunosorbent plates (Corning Costar Stripwell, Sigma Aldrich) overnight at 4° C., and blocked with 1% milk. Serial dilutions of ^99mTc-A1 and ^99mTc-C6 from 1 μM to 0.8 nM were incubated for 1 hour. Unbound activity was removed by 5 serial washes with PBS-Tween 0.1%. The radioactivity in each well was determined using a γ-counter (Wizard², Perkin Elmer). Unspecific binding was determined by incubation of ^99mTC-A1 or ^99mTc-C6 in empty wells. Results were corrected from background and decay, and the [^99mTc-A1] and [^99mTc-C6] binding curves were fitted using a nonlinear regression equation (specific binding: Y=B max*X/(KD+X) with X being the radioligand concentration) and using GraphPad Prism 6 software to determine KD values. Uptake was normalized to the Bmax for graphic representation of 3 independent experiments.

[3] = target: T1, Mesothelin (MSLN) on MSLN-positive …; experiment: radioligand binding on cells in suspension, 40 nM 99mTc-A1, 1 h at 4 C, gamma counting
Protocol: (§2) HCC70 and MDA-MB-231 cells were rinsed with PBS, detached using EDTA 5 mM, and resuspended at 200,000 cells per tube. Cells were incubated for 1 hour with PBS-BSA 1% and then with 40 nM of ^99mTc-A1 or 150 nM of ^99mTc-C6 for 1 h at 4° C., in the absence or presence of a 200-fold excess of unlabeled A1 or C6. Cell suspensions were centrifuged at 400 g during 5 min at 4° C., and washed 5-times with cold-PBS. Cells were then transferred to new tubes and radioactivity was determined using a γ-counter (Wizard², Perkin).

[4] = target: T2, Human MSLN recombinant protein (R&D …); experiment: saturation radioligand binding on plate-immobilized recombinant human MSLN, gamma counting, nonlinear fit
Protocol: as §1

[5] = target: T2, Human MSLN recombinant protein (R&D …); experiment: saturation radioligand binding on recombinant human MSLN (as told in the discussion); value told in the discussion; recombinant human MSLN
Protocol: as §1

[6] = target: T1, Mesothelin (MSLN) on MSLN-positive …; experiment: competition on HCC70 cells, 200-fold excess of unlabeled A1 against 40 nM 99mTc-A1 (competitor: 99mTc-A1)
Protocol: as §2

T1 sequence (Q13421 other isoform, or with tags, fused parts or gaps limits assumed): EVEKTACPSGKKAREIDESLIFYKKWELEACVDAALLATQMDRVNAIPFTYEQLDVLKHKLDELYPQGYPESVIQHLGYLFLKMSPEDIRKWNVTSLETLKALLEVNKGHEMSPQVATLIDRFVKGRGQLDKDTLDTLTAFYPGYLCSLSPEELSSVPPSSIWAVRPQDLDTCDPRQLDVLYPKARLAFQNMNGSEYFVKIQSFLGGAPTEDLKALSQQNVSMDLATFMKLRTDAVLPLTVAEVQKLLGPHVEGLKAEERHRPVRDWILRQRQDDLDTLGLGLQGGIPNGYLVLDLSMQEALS

Row | fold affinity against 99mTc-C6 [2] | Kd [4] | Kd [5] | Binder | 99mTc-A1 uptake in HCC70 tumors by SPECT quantification, with competition (150-fold excess of unlabeled A1) [1] | fold decrease in 99mTc-A1 uptake in HCC70 tumors by SPECT quantification, co-injection of a 150-fold excess of unlabeled A1 [1] | fold decrease in 99mTc-A1 uptake in HCC70 tumors, ex vivo biodistribution, with excess of unlabeled A1 [1] | fold binding on HCC70 cells against MSLN-negative MDA-MB-231 cells [3] | fold decrease in 99mTc-A1 binding to HCC70 cells [6]
1 | > 2 fold | 43.9 nM | 35 nM | 99mTc-A1 (anti-mesothelin A1 single domain antibody radiolabeled with technetium-99m at its C-terminal hexahistidine tag) (VHH, 99mTc-tricarbonyl at the C-terminal hexahistidine-tag (His-Tag), Labeled by the tricarbonyl method; also called radiolabeled A1 nanobody) VHH: QVQLVQSGGGLVHPGGSLRLSCAASGIDLSLYRMRWYRQAPGKERDLVALITDDGTSYYEDSVKGRFTITRDNPSNKVFLQMNSLKPEDTAVYYCNAETPLSPVNYWGQGTQVTVSH | 0.6 % ID/g | ~7 fold | ~7 fold | 7.9 fold | –
2 | – | – | – | A1 anti-mesothelin single domain antibody, unlabeled (VHH, Same protein as in m1, without the radiolabel; also called unlabeled A1; A1 nanobody) VHH: QVQLVQSGGGLVHPGGSLRLSCAASGIDLSLYRMRWYRQAPGKERDLVALITDDGTSYYEDSVKGRFTITRDNPSNKVFLQMNSLKPEDTAVYYCNAETPLSPVNYWGQGTQVTVSH | – | – | – | – | 6 fold
